Assay results as given in patent US8633156B2, “Insulin derivatives having an extremely delayed time-action profile” (Sanofi-Aventis Deutschland GmbH, priority 2008, dated 2014).

Columns and labels:
[1] = system: healthy male normal glycemic Wistar rats; assay: Blood glucose-lowering effect of insulin analogues in rats; format: in vivo, rat; conditions: dose 9 nmol/kg s.c., n=8, blood glucose up to eight hours after injection
Procedure: In order to test the insulin derivatives of the invention for their biopharmacological and physicochemical properties, a solution of the compounds was prepared as follows: the insulin derivative of the invention was dissolved with a target concentration of 240±5 μM in 1 mM hydrochloric acid with 80 μg/mL zinc (as zinc chloride). For this purpose, initially an amount of the freeze-dried material which is about 30% higher than required on the basis of the molecular weight and the desired concentration was weighed out. The concentration present was then determined by analytical HPLC and the solution was subsequently made up to the volume necessary to achieve the target concentration with 5 mM hydrochloric acid with 80 μg/mL zinc. If necessary, the pH was readjusted to 3.5±0.1. After the final analysis by HPLC to verify the target concentration of 240±5 μM, the finished solution was transferred by means of a syringe with a 0.2 μm filter attachment into a sterile vial which was closed with a septum and a crimped cap. […] Blood samples are taken from the animals immediately before the injection of the insulin analogue and at regular intervals up to eight hours after the injection, and the blood glucose content therein is determined.

[2] = from Kohn et al., cited from earlier work

Row | Substance | hypoglycemic effect [1] | isoelectric point (pl) [2] | calculated pl ([2]; calculated) | experimentally determined pl ([2]; experimentally determined)
1 | human insulin | hypoglycemic effect | 5.6 |  | 
2 | Arg (A0), Gly (A21), Arg (B31), Arg (B32) human insulin [Compound 18] |  |  | 7.58 | 7.3
